Common to all, as to assay: SPR, KD relative to WT C2;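 also: biacore SPR at 37 °C, anti-C2 mAbs captured via immobilised goat anti-human IgG, C2 alanine or serine surface mutants as analytes, 1:1 model fitted, double-referenced sensograms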
The target in one assay is T1, human C2 G432A (human, UniProt P06681 21-752).
T1 sequence: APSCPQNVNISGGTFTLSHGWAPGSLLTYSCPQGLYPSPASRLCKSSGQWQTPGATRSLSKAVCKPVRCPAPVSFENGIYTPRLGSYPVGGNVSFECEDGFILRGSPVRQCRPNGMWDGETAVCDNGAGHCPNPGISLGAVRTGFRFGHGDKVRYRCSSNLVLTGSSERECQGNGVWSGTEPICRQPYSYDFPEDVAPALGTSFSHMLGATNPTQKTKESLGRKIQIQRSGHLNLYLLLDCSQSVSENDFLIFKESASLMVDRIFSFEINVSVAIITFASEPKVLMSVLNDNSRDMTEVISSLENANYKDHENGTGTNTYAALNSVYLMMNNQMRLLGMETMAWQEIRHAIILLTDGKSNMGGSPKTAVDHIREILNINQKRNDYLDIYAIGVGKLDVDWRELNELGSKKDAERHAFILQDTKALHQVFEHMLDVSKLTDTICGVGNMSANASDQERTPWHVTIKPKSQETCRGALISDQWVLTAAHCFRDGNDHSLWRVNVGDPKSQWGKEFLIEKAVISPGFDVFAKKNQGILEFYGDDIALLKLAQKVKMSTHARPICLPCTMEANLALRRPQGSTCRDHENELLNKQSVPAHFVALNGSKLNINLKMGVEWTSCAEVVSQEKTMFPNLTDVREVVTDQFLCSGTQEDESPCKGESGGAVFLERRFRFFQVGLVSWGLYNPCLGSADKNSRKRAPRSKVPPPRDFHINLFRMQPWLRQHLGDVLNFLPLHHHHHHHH

For another assay, the target named is T2, human C2 L439A (human, UniProt P06681 21-752).
T2 sequence: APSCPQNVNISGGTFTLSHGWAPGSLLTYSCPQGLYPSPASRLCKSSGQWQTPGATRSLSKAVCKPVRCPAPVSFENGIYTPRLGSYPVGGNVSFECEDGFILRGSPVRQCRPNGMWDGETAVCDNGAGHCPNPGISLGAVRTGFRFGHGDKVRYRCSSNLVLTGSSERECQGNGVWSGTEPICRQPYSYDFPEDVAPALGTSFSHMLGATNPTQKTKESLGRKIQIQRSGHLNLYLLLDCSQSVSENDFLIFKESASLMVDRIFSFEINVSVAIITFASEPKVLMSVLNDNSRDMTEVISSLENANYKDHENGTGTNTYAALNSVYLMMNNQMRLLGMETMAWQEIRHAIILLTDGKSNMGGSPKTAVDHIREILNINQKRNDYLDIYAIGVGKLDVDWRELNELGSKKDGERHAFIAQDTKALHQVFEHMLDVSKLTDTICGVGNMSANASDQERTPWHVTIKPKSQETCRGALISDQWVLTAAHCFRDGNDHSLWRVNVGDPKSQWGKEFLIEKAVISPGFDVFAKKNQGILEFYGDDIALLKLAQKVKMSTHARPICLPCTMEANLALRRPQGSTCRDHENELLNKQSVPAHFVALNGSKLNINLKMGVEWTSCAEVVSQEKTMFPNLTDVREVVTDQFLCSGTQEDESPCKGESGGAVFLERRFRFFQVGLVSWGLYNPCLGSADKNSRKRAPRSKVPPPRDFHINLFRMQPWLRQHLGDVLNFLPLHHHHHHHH

The target of the next assay is T3, human C2 E450A (human, UniProt P06681 21-752).
T3 sequence: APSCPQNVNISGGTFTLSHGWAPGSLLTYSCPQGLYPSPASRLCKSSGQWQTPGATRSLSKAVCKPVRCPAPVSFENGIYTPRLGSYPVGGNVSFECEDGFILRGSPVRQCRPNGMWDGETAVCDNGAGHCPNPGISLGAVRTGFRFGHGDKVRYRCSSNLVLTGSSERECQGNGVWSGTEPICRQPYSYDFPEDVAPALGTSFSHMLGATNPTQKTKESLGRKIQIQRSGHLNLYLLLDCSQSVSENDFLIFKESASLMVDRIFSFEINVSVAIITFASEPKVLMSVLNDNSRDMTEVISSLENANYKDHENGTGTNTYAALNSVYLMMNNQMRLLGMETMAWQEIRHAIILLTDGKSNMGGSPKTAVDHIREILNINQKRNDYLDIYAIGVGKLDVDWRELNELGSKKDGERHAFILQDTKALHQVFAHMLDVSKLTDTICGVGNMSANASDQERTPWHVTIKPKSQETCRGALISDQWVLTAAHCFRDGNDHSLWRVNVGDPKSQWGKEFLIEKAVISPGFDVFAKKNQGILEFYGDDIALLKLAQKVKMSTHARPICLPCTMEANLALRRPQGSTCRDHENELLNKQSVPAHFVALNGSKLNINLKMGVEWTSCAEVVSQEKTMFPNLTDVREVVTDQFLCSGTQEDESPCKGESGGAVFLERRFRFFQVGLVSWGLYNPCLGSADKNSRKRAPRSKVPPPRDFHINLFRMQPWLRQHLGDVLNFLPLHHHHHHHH

The next assay concerns the target T4, human C2 E686A (human, UniProt P06681 21-752).
T4 sequence: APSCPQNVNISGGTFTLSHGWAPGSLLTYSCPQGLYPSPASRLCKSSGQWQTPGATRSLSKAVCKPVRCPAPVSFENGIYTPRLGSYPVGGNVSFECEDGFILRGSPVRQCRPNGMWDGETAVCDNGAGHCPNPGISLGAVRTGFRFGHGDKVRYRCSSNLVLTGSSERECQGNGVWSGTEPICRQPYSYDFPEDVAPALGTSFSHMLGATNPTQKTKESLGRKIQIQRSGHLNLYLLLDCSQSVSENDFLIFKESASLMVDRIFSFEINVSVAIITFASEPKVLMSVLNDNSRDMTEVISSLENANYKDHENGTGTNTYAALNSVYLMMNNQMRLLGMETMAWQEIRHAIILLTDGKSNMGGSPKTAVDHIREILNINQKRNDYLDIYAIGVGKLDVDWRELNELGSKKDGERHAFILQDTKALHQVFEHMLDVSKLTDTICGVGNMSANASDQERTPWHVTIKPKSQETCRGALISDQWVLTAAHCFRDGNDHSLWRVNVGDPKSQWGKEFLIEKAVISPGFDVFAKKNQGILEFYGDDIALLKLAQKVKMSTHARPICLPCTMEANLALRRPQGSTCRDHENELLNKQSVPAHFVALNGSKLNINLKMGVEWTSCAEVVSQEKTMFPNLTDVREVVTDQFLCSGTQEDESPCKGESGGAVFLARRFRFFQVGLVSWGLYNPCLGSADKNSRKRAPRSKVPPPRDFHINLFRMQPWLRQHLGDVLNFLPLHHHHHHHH

Fold diff data for one molecule are collected here from patent US20220332804A1 (CSL INNOVATION, published 2022).

B1: RF16-226 (antibody, human IgG4 S228P, lambda)
heavy: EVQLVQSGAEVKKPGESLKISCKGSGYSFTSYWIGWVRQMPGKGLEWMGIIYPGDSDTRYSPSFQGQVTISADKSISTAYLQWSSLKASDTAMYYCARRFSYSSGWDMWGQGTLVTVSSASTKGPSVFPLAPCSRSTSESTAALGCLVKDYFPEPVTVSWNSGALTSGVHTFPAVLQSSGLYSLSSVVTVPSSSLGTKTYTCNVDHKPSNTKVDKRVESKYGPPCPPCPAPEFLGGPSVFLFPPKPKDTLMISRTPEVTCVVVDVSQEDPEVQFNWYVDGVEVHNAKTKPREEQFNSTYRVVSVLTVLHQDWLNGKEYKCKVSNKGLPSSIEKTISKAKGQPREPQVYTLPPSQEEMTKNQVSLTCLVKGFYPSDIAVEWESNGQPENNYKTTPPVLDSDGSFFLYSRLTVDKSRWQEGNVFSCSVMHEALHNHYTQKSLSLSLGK
light: SYELTQPPSVSVSPGQTARITCSGDALTSKYVAWYQQKSGLAPLLVIYEDTRRPSGIPAKFSGSSSGSVATLTISGAHGDDEADYYCYSTDASGHQRVFGGGTKLTVLSQPKAAPSVTLFPPSSEELQANKATLVCLISDFYPGAVTVAWKADGSPVKAGVETTKPSKQSNNKYAASSYLSLTPEQWKSHRSYSCQVTHEGSTVEKTVAPTECS
notes: pH-dependent anti-C2 antibody from a phage display library; also called WT
Turning to B1, the Fold diff in the assay with human C2 G432A is 1 fold; with human C2 L439A, 12 fold; with human C2 E450A, 0 fold; in the assay with human C2 E686A, 5 fold.
